# Measurements reported in US20080305187A1, “Use of Parathyroid Hormone for Treating Periodontal Disease and for Other Dental Applications” (priority 2005, published 2008).
# B1: parathyroid hormone (peptide, UniProt P01270 32-115, looked up)
# Parathyroid hormone: SVSEIQLMHNLGKHLNSMERVEWLRKKLQDVHNFVALGAPLAPRDAGSQRPRKKEDNVLVESHEKSLGEADKADVNVLTKAKSQ
# modifications: Parathyroid hormone
# Legend:
# [1] = system: patient with adult periodontitis; assay: Treatment of patient with periodontal disease prior to dental implant therapy; format: in vivo, human; conditions: person, 20 μg once-daily subcutaneous for 3 months prior to implant surgery
# Source text: A person presents with a history of adult periodontitis. The patient has experienced significant alveolar bone loss confirmed radiographically, and has a number of tooth sites with pocket probing depth measurements of about 7 mm. The patient has discussed with their dentist possible extraction of severely-affected teeth and their replacement with dental implants, but the prospects for success are diminished in view of the bone loss that has occurred. Standard periodontal care is provided, including scaling and root planning, and those teeth with poor prognosis are extracted. Prior to implant surgery, the patient is administered 20 μg of hPTH(1-34) once-daily by subcutaneous injection for 3 months prior to implant surgery.
# [2] = system: systemic bone loss associated with osteoporosis; conditions: R. M. Neer et al., NEJM 2001; cited from earlier work
Molecule,complications post placement of the implants [1],BMD [2],risk of vertebral and non-vertebral bone fracture [2]
"CC[C@H](C)[C@H](NC(=O)[C@H](CCC(=O)O)NC(=O)[C@H](CO)NC(=O)[C@@H](NC(=O)[C@@H](N)CO)C(C)C)C(=O)N[C@@H](CCC(N)=O)C(=O)N[C@@H](CC(C)C)C(=O)N[C@@H](CCSC)C(=O)N[C@@H](Cc1cnc[nH]1)C(=O)N[C@@H](CC(N)=O)C(=O)N[C@@H](CC(C)C)C(=O)NCC(=O)N[C@@H](CCCCN)C(=O)N[C@@H](Cc1cnc[nH]1)C(=O)N[C@@H](CC(C)C)C(=O)N[C@@H](CC(N)=O)C(=O)N[C@@H](CO)C(=O)N[C@@H](CCSC)C(=O)N[C@@H](CCC(=O)O)C(=O)N[C@@H](CCCN=C(N)N)C(=O)N[C@H](C(=O)N[C@@H](CCC(=O)O)C(=O)N[C@@H](Cc1c[nH]c2ccccc12)C(=O)N[C@@H](CC(C)C)C(=O)N[C@@H](CCCN=C(N)N)C(=O)N[C@@H](CCCCN)C(=O)N[C@@H](CCCCN)C(=O)N[C@@H](CC(C)C)C(=O)N[C@@H](CCC(N)=O)C(=O)N[C@@H](CC(=O)O)C(=O)N[C@H](C(=O)N[C@@H](Cc1cnc[nH]1)C(=O)N[C@@H](CC(N)=O)C(=O)N[C@@H](Cc1ccccc1)C(=O)O)C(C)C)C(C)C [hPTH(1-34), human PTH(1-34)]",No complications,–,–
B1,–,increases BMD,reduces the risk of vertebral and non-vertebral bone fracture
